According to patent US20140187615, “THERAPEUTIC POLYNUCLEOTIDES, COMPOSITIONS, AND METHODS” (Regents of the University of Minnesota, published 2014):

Key:
[1] = biological target: T1, phospholamban (PLN), pentameric (UniProt P61015); assay: FP; conditions: ACE Kd 0.5 ± 0.1 nM; also gel shift (FIG. 1C); MOPS, 0.1% C12E8, 1 mM MgCl2, 5 mM CaCl2, pH 7.0
T1 sequence: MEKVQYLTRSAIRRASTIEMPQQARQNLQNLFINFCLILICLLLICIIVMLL

[2] = biological target: T2, phospholamban (PLN), pentameric (UniProt P61015 P61015:1-52); assay: FP; ACE Kd 80 ± 40 nM; MOPS, 0.1% C12E8, 1 mM MgCl2, 5 mM CaCl2, pH 7.0; conditions: chain copies: 5 (stated pentameric); label: 5'-FAM
T2 sequence: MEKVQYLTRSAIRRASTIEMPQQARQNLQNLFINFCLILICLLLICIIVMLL

[3] = biological target: T2, phospholamban (PLN), pentameric; assay: FP; ACE Kd 6.5 ± 0.9 nM; MOPS, 0.1% C12E8, 1 mM MgCl2, 5 mM CaCl2, pH 7.0; conditions: chain copies: 5 (stated pentameric); label: 5'-FAM
[4] = biological target: T2, phospholamban (PLN), pentameric; assay: FP; ACE Kd 260 ± 180 nM; MOPS, 0.1% C12E8, 1 mM MgCl2, 5 mM CaCl2, pH 7.0; conditions: chain copies: 5 (stated pentameric); label: 5'-FAM
[5] = biological target: T2, phospholamban (PLN), pentameric; assay: FP; ACE Kd 24 ± 5 nM; MOPS, 0.1% C12E8, 1 mM MgCl2, 5 mM CaCl2, pH 7.0; conditions: chain copies: 5 (stated pentameric); label: 5'-FAM
[6] = biological target: T2, phospholamban (PLN), pentameric; assay: FP; ACE Kd 1.2 ± 0.4 nM; MOPS, 0.1% C12E8, 1 mM MgCl2, 5 mM CaCl2, pH 7.0; conditions: chain copies: 5 (stated pentameric); label: 5'-FAM

Work on “NNNNNNNNNNNNNNNNNNNNNNNNNNNNNNNNNNNNNNNNNNNNNNNNNNNNNNNNNNNNNNNNNNNNNNNNNNNNNNNN [ssDNA random 80-mer]” yielded a Kd [1] of 3.1 nM.

B1: ssDNA 15-mer (ssDNA)
DNA: AGTGATAGCTATGGT
B1 gave a Kd [2] of 3.1 nM.

B2: ssDNA 20-mer (ssDNA)
DNA: AGCAGCACAGAGGTCAGATG
In the case of B2, the Kd [3] is reported as 1.8 nM.

B3: ssDNA 10-mer (ssDNA)
DNA: ATAGCTTGCA
For B3, the Kd [4] was 35 nM.

B4: ssDNA 30-mer (ssDNA)
DNA: ACTGAGCATGGGATAACCGTTCTCAGACTT
B4 gave a Kd [5] of 21 nM.

B5: ssDNA 50-mer (ssDNA)
DNA: AGCAGCACAGAGGTCAGATGCAGGTAGGGTCCTATGCGTGCTACCGTGAA
B5 showed a Kd [6] of 5 nM.
